Earlier results, collected in patent US20070014786A1, “Methods for treating taxol-induced gut disorder” (RINAT NEUROSCIENCE CORP., priority 2003, published 2007).

T1: low affinity receptor (LNGFR), p75NTR or p75 (Homo sapiens, UniProt P08138)
T1 sequence (P08138 29-427): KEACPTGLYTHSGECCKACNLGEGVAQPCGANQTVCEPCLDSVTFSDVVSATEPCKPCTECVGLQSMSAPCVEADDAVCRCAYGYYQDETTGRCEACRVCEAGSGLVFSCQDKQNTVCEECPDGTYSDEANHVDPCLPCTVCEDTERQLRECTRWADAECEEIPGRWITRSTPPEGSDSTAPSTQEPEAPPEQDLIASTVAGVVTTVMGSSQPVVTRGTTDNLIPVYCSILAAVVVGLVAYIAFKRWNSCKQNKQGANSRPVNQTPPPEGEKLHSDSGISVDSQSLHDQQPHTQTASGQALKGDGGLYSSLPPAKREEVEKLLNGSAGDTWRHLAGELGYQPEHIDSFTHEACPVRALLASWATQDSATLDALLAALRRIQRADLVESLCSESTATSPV


Target: T1, low affinity receptor (LNGFR), p75NTR or p75
Conditions: according to current knowledge (background)

Kd [nM]	Molecule
2	neurotrophin-4/5 (protein, UniProt P34130 81-210, looked up, neurotrophin family member) Neurotrophin-4: GVSETAPASRRGELAVCDAVSGWVTDRRTAVDLRGREVEVLGEVPAAGGSPLRQYFFETRCKADNAEEGGPGAGGGGCRGVDRRHWVSECKAKQSYVRALTADAQGRVGWRWIRIDTACVCTLLSRTGRA
2	brain-derived neurotrophic factor (protein, UniProt P23560 19-247, looked up, neurotrophin family member) Neurotrophic factor BDNF …: APMKEANIRGQGGLAYPGVRTHGTLESVNGPKAGSRGLTSLADTFEHVIEELLDEDQKVRPNEENNKDADLYTSRVMLSSQVPLEPPLLFLLEEYKNYLDAANMSMRVRRHSDPARRGELSVCDSISEWVTAADKKTAVDMSGGTVTVLEKVPVSKGQLKQYFYETKCNPMGYTKEGCRGIDKRHWNSQCRTTQSYVRALTMDSKKRIGWRFIRIDTSCVCTLTIKRGR
